Experimental data: patent publication US20090191579A1 (PAIN THERAPEUTICS, published 2009)

Molecular target: MAP1B, endogenous, rat striatum (rat, UniProt P15205 2-2461, limits assumed)
Assay: co-immunoprecipitation (anti-Gα, then anti-MOR) from rat striatum, Western blot

Sequence of MAP1B, endogenous, rat striatum (P15205 2-2461 limits assumed): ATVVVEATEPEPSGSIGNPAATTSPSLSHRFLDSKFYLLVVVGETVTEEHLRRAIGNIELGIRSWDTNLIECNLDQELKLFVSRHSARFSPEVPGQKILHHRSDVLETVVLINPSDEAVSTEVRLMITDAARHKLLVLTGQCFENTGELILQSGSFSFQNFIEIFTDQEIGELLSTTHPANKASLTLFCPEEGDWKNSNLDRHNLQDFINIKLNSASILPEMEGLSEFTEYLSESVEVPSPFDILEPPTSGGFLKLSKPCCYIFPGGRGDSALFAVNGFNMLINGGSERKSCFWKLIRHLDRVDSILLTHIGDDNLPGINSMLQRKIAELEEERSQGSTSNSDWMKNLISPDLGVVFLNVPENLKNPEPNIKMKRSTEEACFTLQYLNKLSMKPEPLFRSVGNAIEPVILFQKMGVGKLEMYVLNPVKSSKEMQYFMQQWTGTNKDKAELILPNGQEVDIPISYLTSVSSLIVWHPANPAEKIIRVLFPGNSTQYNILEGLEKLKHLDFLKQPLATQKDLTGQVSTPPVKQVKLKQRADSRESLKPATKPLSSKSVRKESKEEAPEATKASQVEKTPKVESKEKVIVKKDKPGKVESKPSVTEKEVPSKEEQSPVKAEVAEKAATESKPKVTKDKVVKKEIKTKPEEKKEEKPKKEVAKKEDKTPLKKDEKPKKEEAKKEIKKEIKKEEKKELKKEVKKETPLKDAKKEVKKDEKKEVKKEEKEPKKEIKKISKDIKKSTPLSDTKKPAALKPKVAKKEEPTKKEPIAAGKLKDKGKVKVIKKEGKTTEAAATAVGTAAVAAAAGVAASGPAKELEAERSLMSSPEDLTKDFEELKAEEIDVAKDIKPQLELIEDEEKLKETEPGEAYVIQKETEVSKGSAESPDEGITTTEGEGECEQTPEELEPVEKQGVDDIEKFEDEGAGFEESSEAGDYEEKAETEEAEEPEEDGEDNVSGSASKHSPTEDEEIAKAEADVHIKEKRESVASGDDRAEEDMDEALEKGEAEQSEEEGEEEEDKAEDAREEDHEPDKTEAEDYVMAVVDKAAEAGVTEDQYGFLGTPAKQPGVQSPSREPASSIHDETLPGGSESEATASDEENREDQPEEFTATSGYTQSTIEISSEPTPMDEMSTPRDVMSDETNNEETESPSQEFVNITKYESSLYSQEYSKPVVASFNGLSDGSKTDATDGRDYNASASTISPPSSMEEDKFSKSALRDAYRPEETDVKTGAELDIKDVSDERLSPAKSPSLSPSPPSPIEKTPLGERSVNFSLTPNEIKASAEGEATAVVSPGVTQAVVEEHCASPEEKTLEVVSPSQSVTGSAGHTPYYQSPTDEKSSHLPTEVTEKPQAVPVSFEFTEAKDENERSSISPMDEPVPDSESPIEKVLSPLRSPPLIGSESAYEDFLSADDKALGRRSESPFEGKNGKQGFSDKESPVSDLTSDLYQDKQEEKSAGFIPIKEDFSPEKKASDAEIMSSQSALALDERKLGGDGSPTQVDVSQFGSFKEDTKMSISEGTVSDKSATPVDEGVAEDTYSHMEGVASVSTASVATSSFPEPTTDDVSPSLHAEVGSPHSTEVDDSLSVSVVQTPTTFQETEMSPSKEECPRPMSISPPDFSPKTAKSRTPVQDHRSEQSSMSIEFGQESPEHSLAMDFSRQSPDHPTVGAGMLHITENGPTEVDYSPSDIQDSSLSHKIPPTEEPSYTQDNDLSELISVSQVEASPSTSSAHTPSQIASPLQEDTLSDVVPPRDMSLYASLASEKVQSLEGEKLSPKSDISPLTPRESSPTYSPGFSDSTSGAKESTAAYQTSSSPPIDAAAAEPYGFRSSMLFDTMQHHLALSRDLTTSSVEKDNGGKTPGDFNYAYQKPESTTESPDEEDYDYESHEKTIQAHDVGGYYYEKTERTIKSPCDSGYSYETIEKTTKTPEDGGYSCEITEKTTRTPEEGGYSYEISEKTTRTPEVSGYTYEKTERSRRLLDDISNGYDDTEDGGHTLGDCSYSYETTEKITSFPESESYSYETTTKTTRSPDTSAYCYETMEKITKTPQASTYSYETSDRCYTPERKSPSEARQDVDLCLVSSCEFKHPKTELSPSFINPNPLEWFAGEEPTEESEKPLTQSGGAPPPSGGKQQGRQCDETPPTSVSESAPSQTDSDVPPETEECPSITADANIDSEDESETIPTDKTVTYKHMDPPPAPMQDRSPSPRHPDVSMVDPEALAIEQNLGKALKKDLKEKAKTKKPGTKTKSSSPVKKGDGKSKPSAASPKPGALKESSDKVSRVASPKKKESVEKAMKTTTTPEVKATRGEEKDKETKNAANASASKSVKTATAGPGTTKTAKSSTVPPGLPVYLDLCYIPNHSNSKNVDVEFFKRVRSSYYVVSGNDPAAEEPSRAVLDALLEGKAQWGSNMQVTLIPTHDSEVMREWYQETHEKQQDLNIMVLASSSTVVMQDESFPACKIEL

B1: mu opioid receptor (MOR), endogenous, rat striatum (receptor, UniProt P33535 1-398, looked up)
chain: MDSSTGPGNTSDCSDPLAQASCSPAPGSWLNLSHVDGNQSDPCGLNRTGLGGNDSLCPQTGSPSMVTAITIMALYSIVCVVGLFGNFLVMYVIVRYTKMKTATNIYIFNLALADALATSTLPFQSVNYLMGTWPFGTILCKIVISIDYYNMFTSIFTLCTMSVDRYIAVCHPVKALDFRTPRNAKIVNVCNWILSSAIGLPVMFMATTKYRQGSIDCTLTFSHPTWYWENLLKICVFIFAFIMPVLIITVCYGLMILRLKSVRMLSGSKEKDRNLRRITRMVLVVVAVFIVCWTPIHIYVIIKALITIPETTFQTVSWHFCIALGYTNSCLNPVLYAFLDENFKRCFREFCIPTSSTIEQQNSTRVRQNTREHPSTANTVDRTNHQLENLEAETAPLP
notes: Endogenous receptor immunoprecipitated with anti-MOR or detected with anti-MOR in anti-Gα immunoprecipitates; also called µ opioid receptor
- binding result: no binding
